Test results published in patent publication US20230348569A1.

Tests used:
[1] = molecular target: SARS-CoV-2-S-RBD-mmH (SARS-CoV-2); conditions: remark: other sources report otherwise
[2] = molecular target: SARS-CoV-2 RBD extracellular domain expressed with a C-terminal myc-myc-hexahistidine tag (SARS-COV-2 RBD-MMH) (SARS-CoV-2); conditions: remark: other sources report otherwise

Row | Binder | Binding Signal (absorbance at 450 nm) (absorbance at 450 nm) [1] | t½ (dissociative half-life) [2] [min]
1 | mAb11004 (antibody, V domains shown) VH: QVQLVESGGGVVQPGRSLRLSCVASGFTFSIYGMDWVRQAPGKGLEWVAVISYDGSNKYYADSVKGRFTISRDNSKNTLYLQMNSLRPEDTAVYYCAKDREAAADAFDIWGQGTMVTVSS VL: DIQMTQSPSSVSASVGDRVTITCRASQGISSWLAWYQQKPGKAPKLLIYAASSLHSGVPSRFSGSGSGTDFTLTISSLQPEDFATYYCQQANSFRLTFGGGTKVEIK | 2.91 | 3.7
2 | mAb11006 (antibody, V domains shown) VH: EVQLVESGGGLVQPGGSLRLSCAASGFIVSRNYMSWVRQAPGKGLEWVSVIYSGGSTFYADSVKGRFTISRHNSKNTLYLQMNSLKAEDTAVYYCARELRGYFDYWGQGTLVTVSS VL: DIQLTQSPSFLSASVGDRVTITCWASQGISSYLAWYQQKPGKAPKLLIYAASTLQSGVPSRFSGSGSGTEFTLTISSLQPEDFATYYCQLLNSYPYTFGQGTKLEIK | 2.62 | 31.5
3 | mAb11008 (antibody, V domains shown) VH: EVQLVESGGGLVQPGGSLRLSCAASGFTVSSNYMTWVRQAPGKGLEWVSVIYSGGSTFYADSVKGRFTISRHNSENTLYLQMNSLRAEDTAVYYCARDLAAAGTDYWGQGALVTVSS VL: DIQLTQSPSFLSASVGDRVTITCWASQGISSYLAWYQQKPGKAPKLLIYAASTLQSGVPSRFSGSGSGTEFTLTISSLQPDDFATYYCQHLNSYLYTFGQGTKLEIK | 2.91 | 2.9
4 | mAb10998 (antibody, V domains shown) VH: EVQLVESGGGLVHPGGSLRLSCAASGLTVSSNYMSWVRQAPGKGLEWVSVIYSGGSTYYADSVKGRFTISRHNSKNTLFLQMNSLRAEDTAVYYCARDRPITGTTLDVWGQGTTVTVSS VL: DIQMTQSPSSLFASVGDRVTITCRASQSISSYLNWYQQKPGKAPKLLIYAASSLQSGVPSRFSGSGSGTDFTLTISSLQPEDFAFYYCQQTYSTPPITFGQGTRLEIK | 2.83 | 0.5
